# From PMC2670979
# B1: GST-Miro1 WT [not stated] / KIF5C [modified: 35S-methionine label; 35S-methionine label] [not stated] (parent)
# chain 1: MKKDVRILLVGEPRVGKTSLIMSLVSEEFPEEVPPRAEEITIPADVTPERVPTHIVDYSEAEQSDEQLHQEISQANVICIVYAVNNKHSIDKVTSRWIPLINERTDKDSRLPLILVGNKSDLVEYSSMETILPIMNQYTEIETCVECSAKNLKNISELFYYAQKAVLHPTGPLYCPEEKEMKPACIKALTRIFKISDQDNDGTLNDAELNFFQRICFNTPLAPQALEDVKNVVRKHISDGVADSGLTLKGFLFLHTLFIQRGRHETTWTVLRRFGYDDDLDLTPEYLFPLLKIPPDCTTELNHHAYLFLQSTFDKHDLDRDCALSPDELKDLFKVFPYIPWGPDVNNTVCTNERGWITYQGFLSQWTLTTYLDVQRCLEYLGYLGYSILTEQESQASAVTVTRDKKIDLQKKQTQRNVFRCNVIGVKNCGKSGVLQALLGRNLMRQKKIREDHKSYYAINTVYVYGQEKYLLLHDISESEFLTEAEIICDVVCLVYDVSNPKSFEYCARIFKQHFMDSRIPCLIVAAKSDLHEVKQEYSISPTDFCRKHKMPPPQAFTCNTADAPSKDIFVKLTTMAMYPHVTQADLKSSTFWLRASFGATVFAVLGFAMYKALLKQR
# chain 2: MADPAECSIKVMCRFRPLNEAEILRGDKFIPKFKGDETVVIGQGKPYVFDRVLPPNTTQEQVYNACAKQIVKDVLEGYNGTIFAYGQTSSGKTHTMEGKLHDPQLMGIIPRIAHDIFDHIYSMDENLEFHIKVSYFEIYLDKIRDLLDVSKTNLAVHEDKNRVPYVKGCTERFVSSPEEVMDVIDEGKANRHVAVTNMNEHSSRSHSIFLINIKQENVETEKKLSGKLYLVDLAGSEKVSKTGAEGAVLDEAKNINKSLSALGNVISALAEGTKTHVPYRDSKMTRILQDSLGGNCRTTIVICCSPSVFNEAETKSTLMFGQRAKTIKNTVSVNLELTAEEWKKKYEKEKEKNKTLKNVIQHLEMELNRWRNGEAVPEDEQISAKDQKNLEPCDNTPIIDNIAPVVAGISTEEKEKYDEEISSLYRQLDDKDDEINQQSQLAEKLKQQMLDQDELLASTRRDYEKIQEELTRLQIENEAAKDEVKEVLQALEELAVNYDQKSQEVEDKTRANEQLTDELAQKTTTLTTTQRELSQLQELSNHQKKRATEILNLLLKDLGEIGGIIGTNDVKTLADVNGVIEEEFTMARLYISKMKSEVKSLVNRSKQLESAQMDSNRKMNASERELAACQLLISQHEAKIKSLTDYMQNMEQKRRQLEESQDSLSEELAKLRAQEKMHEVSFQDKEKEHLTRLQDAEEMKKALEQQMESHREAHQKQLSRLRDEIEEKQKIIDEIRDLNQKLQLEQEKLSSDYNKLKIEDQEREMKLEKLLLLNDKREQAREDLKGLEETVSRELQTLHNLRKLFVQDLTTRVKKSVELDNDDGGGSAAQKQKISFLENNLEQLTKVHKQLVRDNADLRCELPKLEKRLRATAERVKALESALKEAKENAMRDRKRYQQEVDRIKEAVRAKNMARRAHSAQIAKPIRPGHYPASSPTAVHAIRGGGGSSSNSTHYQK
# Variants of: B1
# Test: GST pull-down of in vitro translated 35S-labeled protein
# Conditions: with KIF5C [modified: 35S-methionine label, 2 mM Ca2+, normalized to 100 at 0 mM Ca2+, parent: 70, read off a plot
row,screen value,Variant
1,98,chain 1 E208K E328K
